Data taken from US20240124543A1.
Like-named read-outs stand apart in the source and are kept apart here.

How the values were obtained:
Assay in all cases: cell-based or functional assay
TGFβ1 (R&D systems) [1] = molecular target: TGFβ1 (R&D systems) (UniProt P01137)
TGFβ1 (R&D systems) [2] = molecular target: TGFβ1 (R&D systems) (UniProt P01137); remark: listed apart in the source
IL2Rαβγ on CTLL2 cells = molecular target: IL2Rαβγ on CTLL2 cells
[3] = molecular target: IL2Rβ and common γ chain on 32Dβ cells
[4] = molecular target: IL2Rβ and common γ chain on 32Dβ cells; remark: listed apart in the source

UniProt P01137, sequence (P01137 279-390 limits assumed): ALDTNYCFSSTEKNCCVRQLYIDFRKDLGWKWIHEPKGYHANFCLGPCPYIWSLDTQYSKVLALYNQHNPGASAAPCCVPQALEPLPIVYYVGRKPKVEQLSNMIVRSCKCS

What does the source list for “Human recombinant TGFβRII/Fc (from UniProt P37173 24-159) (Fc fusion)”?
IC50, inhibition of TGFβ1 activity in HEK-Blue TGFβ cells (TGFβ1 (R&D systems) [1]): 0.461 nM; IC50, inhibition of TGFβ1 activity in HEK-Blue TGFβ cells (TGFβ1 (R&D systems) [2]): 0.559 nM

“human recombinant IL-15 (from UniProt P40933 49-162) (ligand)” was tested. Which EC50, CTLL2 cell proliferation (PrestoBlue) (IL2Rαβγ on CTLL2 cells) did it give?
The EC50, CTLL2 cell proliferation (PrestoBlue) was 0.00495 nM.

What about the EC50, CTLL2 cell proliferation (WST1) (IL2Rαβγ on CTLL2 cells) of the same substance?
The EC50, CTLL2 cell proliferation (WST1) was 0.00622 nM.

What about the EC50 (printed EC:), 32Dβ cell proliferation (WST1) [3] of the same substance?
Its EC50 (printed EC:), 32Dβ cell proliferation (WST1) is 0.0166 nM.

And the EC50, 32Dβ cell proliferation (WST1) [3]?
The EC50, 32Dβ cell proliferation (WST1) was 0.0166 nM.

And the EC50, 32Dβ cell proliferation (WST1) [4]?
Its EC50, 32Dβ cell proliferation (WST1) is 0.0106 nM.
